Assay results as given in US12377158.
Positions of bridges follow the written chain, without caps; N, C: chain ends. No end group written: not given here.

What was measured:
[1] = target: Native human Albumin Protein (human) (UniProt P02768); test: SPR (Nicoya OpenSPR), human albumin immobilised on COOH chip, mouse klotho as analyte at 0-40 nM
canine albumins (canine) = canine albumins (canine) (UniProt P49822); test: method not stated
UniProt P49822, sequence (P49822 25-608 limits assumed): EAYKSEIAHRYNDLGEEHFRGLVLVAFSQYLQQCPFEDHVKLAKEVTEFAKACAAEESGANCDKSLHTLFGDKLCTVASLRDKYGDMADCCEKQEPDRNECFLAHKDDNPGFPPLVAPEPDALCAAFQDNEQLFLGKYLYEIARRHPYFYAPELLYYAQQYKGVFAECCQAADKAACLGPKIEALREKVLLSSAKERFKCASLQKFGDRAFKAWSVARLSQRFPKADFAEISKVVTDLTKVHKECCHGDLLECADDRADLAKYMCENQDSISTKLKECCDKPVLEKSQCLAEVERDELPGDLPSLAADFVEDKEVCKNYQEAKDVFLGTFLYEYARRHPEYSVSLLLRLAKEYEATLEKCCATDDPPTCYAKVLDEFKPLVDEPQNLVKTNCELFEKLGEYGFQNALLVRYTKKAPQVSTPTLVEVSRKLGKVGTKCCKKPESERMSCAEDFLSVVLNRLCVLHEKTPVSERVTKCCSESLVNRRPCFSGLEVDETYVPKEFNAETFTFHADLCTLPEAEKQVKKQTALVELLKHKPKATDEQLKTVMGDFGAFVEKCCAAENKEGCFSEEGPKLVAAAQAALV

Row | Kd [1] [nM] | koff [1] [s⁻¹] | kon [1] [M⁻¹ s⁻¹] | Kd (canine albumins (canine)) [nM] | Molecule
1 | 7.94 | 0.00681 | 858000 |  | Mouse klotho protein (from UniProt O35082 35-982)
2 |  |  |  | < 19 | GGSGGSGGSGGRLIEDICLPRWGCLWEDD (peptide, not shown: small tags and cut ends, disulfide 18-24 (inferred); also: fused to alpha Klotho, terminus not given here) [alpha Klotho with the albumin binding construct … (SEQ ID NO: 4) attached to the terminal end]
